Data on 8 molecules can be found in patent US20220213196A1 (GRITSTONE BIO, published 2022).

One may read the Kd as the constant that tells how readily two partners part at equilibrium. What is called koff is the first-order rate constant of dissociation. Broadly, the kon is the second-order rate constant of association.

The target in experiment [1] is T1, HLA-A*01:01_… (G10) on cells (human).
T1 construct: also called G10-presenting K562 cells; Colo829
The experiment can be described thus: flow cytometry histogram, IgG at 30 µg/mL on HLA-A*01:01-transduced K562 cells pulsed with 50 µM …. In general terms: A flow cytometer gives signals particle by particle.

Experiment [2] addresses T2, HLA-B*35:01_… (HLA-PEPTIDE target G5), recombinant soluble complex (human, UniProt P01889 25-297 at identity 0.94); P61769 21-119, enzymatically biotinylated (BirA) for screening and functional assays). The experiment can be described thus: BLI (Octet), biotinylated pHLA on streptavidin sensors; printed under the Fab sensorgrams, the sheet does not say which format or fit gave the bivalent value [cont'd]. (In BLI a coated tip is dipped into the sample, and binding shifts an interference pattern.)

Experiment [3] has as its target T2, HLA-B*35:01_… (HLA-PEPTIDE target G5), …. The experiment can be described thus: BLI Octet, pHLA on streptavidin sensor, 1:1 fit.
In experiment [4] the target is T3, HLA-A*02:01_… (HLA-PEPTIDE target G8), recombinant soluble complex (human, UniProt P04439 25-297 at identity 0.94); P61769 21-119, enzymatically biotinylated (BirA) for screening and functional assays).
T3 construct: Also crystallised with Fab G8-P1C11
Put plainly: BLI (Octet), biotinylated pHLA on streptavidin sensors; printed under the Fab sensorgrams, the sheet does not say which format or fit gave the bivalent value [cont'd].

Experiment [5] deals with T3, HLA-A*02:01_… (HLA-PEPTIDE target G8), …. The experiment can be described thus: BLI Octet, pHLA on streptavidin sensor, 1:1 fit.
Experiment [6] concerns the target T4, HLA-A*01:01_… (HLA-PEPTIDE target G2), recombinant soluble complex (human, UniProt P04439-2 25-297; P61769 21-119, enzymatically biotinylated (BirA) for screening and functional assays). The experiment can be described thus: BLI (Octet), biotinylated pHLA on streptavidin sensors, Fab in solution.
The target of experiment [7] is T3, HLA-A*02:01_… (HLA-PEPTIDE target G8), …. Put plainly: BLI (Octet), biotinylated pHLA on streptavidin sensors; printed under the Fab sensorgrams, the sheet does not say which format or fit gave the bivalent value.
The target of experiment [8] is HLA-A*01:01_… (G2) on K562 cells (human). Put plainly: flow cytometry, HLA-A*01:01-transduced K562 cells pulsed with target peptide, IgG titration.
For experiment [9], the target named is T4, HLA-A*01:01_… (HLA-PEPTIDE target G2), …. The experiment can be described thus: BLI Octet, pHLA on streptavidin sensor, 1:1 fit.

B1: IgG G10-P1B07 (antibody, V domains shown)
VH: QVQLVQSGAEVKKPGASVKVSCKASGYTFTSYYMHWVRQAPGQGLEWMGIIHPGGGTTSYAQKFQGRVTMTRDTSTSTVYMELSSLRSEDTAVYYCARDKVYGDGFDPWGQGTLVTVSS
VL: DIQMTQSPSSLSASVGDRVTITCRASQSISRWLAWYQQKPGKAPKLLIFDASRLQSGVPSRFSGSGSGTDFTLTISSLQPEDFATYYCQQAEAFPYTFGQGTKVEIK
notes: IgG; also called R3G10-P1B07
Take B1: the binding result in [1] is reported as “binds”.

B2: Fab G5-P1C12 (Fab, V domains shown)
VH: QVQLVQSGAEVKKPGSSVKVSCKASGGTFSNFGVSWLRQAPGQGLEWMGGIIPILGTANYAQKFQGRVTITADESTSTAYMELSSLRSEDTAVYYCATPTNSGYYGPYYYYGMDVWGQGTTVTVSS
VL: DIQMTQSPSSLSASVGDRVTITCRASQSISSWLAWYQQKPGKAPKLLIYAASTLQSGVPSRFSGSGSGTDFTLTISSLQPEDFATYYCQQSYSIPLTFGGGTKVEIK
notes: Fab from HEK293
Turning to B2, the “Apparent KD (bivalent)” value in experiment [2] was found to be 0.378 nM. For the same molecule, in experiment [3], the Kd came to 85.9 nM and the koff is 0.0158 s⁻¹.

B3: Fab G8-P5G08 (Fab, V domains shown)
VH: QVQLVQSGAEVKKPGASVKVSCKASGYTFTSNYMHWVRQAPGQGLEWMGWMNPNSGNTGYAQKFQGRVTMTRDTSTSTVYMELSSLRSEDTAVYYCARGLYGDYFLYYGMDVWGQGTTVTVSS
VL: not shown
notes: Fab from HEK293; also called R3G8-P5G08
As to B3, in experiment [4], the “Apparent KD (bivalent)” value worked out at 6.65 nM. Besides, in experiment [5], the Kd was 530 nM, the koff worked out at 0.0528 s⁻¹ and the kon stood at 99700 M⁻¹ s⁻¹.

B4: Fab G2-P1H11 (Fab, V domains shown)
VH: QVQLVQSGAEVKKPGASVKVSCKASGYTFTNYYMHWVRQAPGQGLEWMGMINPSGGGTSYAQKFQGRVTMTRDTSTSTVYMELSSLRSEDTAVYYCARGNPWELRLDYWGQGTLVTVSS
VL: DIQMTQSPSSLSASVGDRVTITCQASQDISNYLNWYQQKPGKAPKLLIYAASSLQSGVPSRFSGSGSGTDFTLTISSLQPEDFATYYCQQYYSYPFTFGPGTKVDIK
notes: Fab
Consider B4, for which, in experiment [6], the Kd was 46.1 nM, the koff was 0.0233 s⁻¹ and the kon was found to be 527000 M⁻¹ s⁻¹.

B5: Fab G8-P4F05 (Fab, V domains shown)
VH: QVQLVQSGAEVKKPGASVKVSCKASGYTFSNMYLHWVRQAPGQGLEWMGWINPNTGDTNYAQTFQGRVTMTRDTSTSTVYMELSSLRSEDTAVYYCARGLYGDYFLYYGMDVWGQGTKVTVSS
VL: DIQMTQSPSSLSASVGDRVTITCRASQGISNYLAWYQQKPGKAPKLLIYAASTLQSGVPSRFSGSGSGTDFTLTISSLQPEDFATYYCQQSYSTPLTFGGGTKVEIK
notes: Fab from HEK293; also called R3G8-P4F05
With B5, the “Apparent KD (bivalent)” value in experiment [7] was determined as 7.9 nM. In experiment [5], the Kd turned out to be 984 nM, the koff was 0.063 s⁻¹ and the kon amounted to 64000 M⁻¹ s⁻¹.

B6: IgG G2-P1H11 (antibody, V domains shown)
VH: QVQLVQSGAEVKKPGASVKVSCKASGYTFTNYYMHWVRQAPGQGLEWMGMINPSGGGTSYAQKFQGRVTMTRDTSTSTVYMELSSLRSEDTAVYYCARGNPWELRLDYWGQGTLVTVSS
VL: DIQMTQSPSSLSASVGDRVTITCQASQDISNYLNWYQQKPGKAPKLLIYAASSLQSGVPSRFSGSGSGTDFTLTISSLQPEDFATYYCQQYYSYPFTFGPGTKVDIK
B6: in experiment [8], the binding result is “binds”.

B7: Fab G8-P1B03 (Fab, V domains shown)
VH: EVQLLESGGGLVQPGGSLRLSCAASGFTFSDYYMSWVRQAPGKGLEWVSGINWNGGSTGYADSVKGRFTISRDNSKNTLYLQMNSLRAEDTAVYYCARVEQGYDIYYYYYMDVWGKGTTVTVSS
VL: DIQMTQSPSSLSASVGDRVTITCRASQSISSYLNWYQQKPGKAPKLLIYKASSLESGVPSRFSGSGSGTDFTLTISSLQPEDFATYYCQQSYSAPYTFGPGTKVDIK
notes: Fab from HEK293
In the case of B7, the “Apparent KD (bivalent)” value in [7] was 3.54 nM. In experiment [5], the Kd was determined as 307 nM, the koff amounted to 0.0511 s⁻¹ and the kon amounted to 167000 M⁻¹ s⁻¹.

B8: Fab G2-P2C06 (Fab, V domains shown)
VH: QVQLVQSGAEVKKPGASVKVSCKSSGYSFDSYVVNWVRQAPGQGLEWMGWINPNSGGTNYAQKFQGRVTMTRDTSTSTVYMELSSLRSEDTAVYYCARDWVLDYWGQGTLVTVSS
VL: DIQMTQSPSSLSASVGDRVTITCRASQTISSWLAWYQQKPGKAPKLLIYAASSLQSGVPSRFSGSGSGTDFTLTISSLQPEDFATYYCQQSYSTPFTFGPGTKVDIK
notes: Fab
Take B8: in [9], the Kd was found to be 30.6 nM, the koff came out at 0.0348 s⁻¹ and the kon is 1.14e+06 M⁻¹ s⁻¹.
